Numbered stars: 1 amine (or outer) side, 2 acyl side, 3 side chain; on linkers, the order of the positions; unused ones are H or OH. Bridge positions count the residues as written; N and C are the ends. Side chains are listed from the residue outwards. Ends that are not written are not given here. * marks the point of attachment. C20 diacid = O=C(O)CCCCCCCCCCCCCCCCCCC(=O)*; γGlu = O=C(O)[C@H](CCC(=O)[*:2])N[*:1]; AEEA = NCCOCCOCC(=O)O
T1: human amylin receptor (amylin 3(a) receptor: human calcitonin receptor co-expressed with RAMP-3) (human, UniProt P30988 25-474; O60896 24-148, limits assumed)
T1 sequence (looked up) 1: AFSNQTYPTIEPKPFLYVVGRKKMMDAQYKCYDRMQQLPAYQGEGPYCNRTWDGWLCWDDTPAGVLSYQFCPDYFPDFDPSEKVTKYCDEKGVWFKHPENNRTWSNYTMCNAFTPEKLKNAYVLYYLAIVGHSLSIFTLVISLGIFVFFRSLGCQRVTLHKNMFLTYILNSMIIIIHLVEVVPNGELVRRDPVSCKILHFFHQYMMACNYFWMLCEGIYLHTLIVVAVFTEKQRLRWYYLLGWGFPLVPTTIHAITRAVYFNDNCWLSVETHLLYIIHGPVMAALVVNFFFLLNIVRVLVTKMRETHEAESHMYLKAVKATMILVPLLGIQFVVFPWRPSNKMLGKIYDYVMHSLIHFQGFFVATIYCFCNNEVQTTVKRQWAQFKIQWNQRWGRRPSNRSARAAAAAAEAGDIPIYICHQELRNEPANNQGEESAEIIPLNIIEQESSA
T1 sequence (looked up) 2: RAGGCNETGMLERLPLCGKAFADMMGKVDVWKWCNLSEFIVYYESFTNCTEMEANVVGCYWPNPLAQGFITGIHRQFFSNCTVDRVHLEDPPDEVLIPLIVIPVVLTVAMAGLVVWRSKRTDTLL

T2: human calcitonin receptor (human, UniProt P30988 25-474)
T2 sequence (looked up): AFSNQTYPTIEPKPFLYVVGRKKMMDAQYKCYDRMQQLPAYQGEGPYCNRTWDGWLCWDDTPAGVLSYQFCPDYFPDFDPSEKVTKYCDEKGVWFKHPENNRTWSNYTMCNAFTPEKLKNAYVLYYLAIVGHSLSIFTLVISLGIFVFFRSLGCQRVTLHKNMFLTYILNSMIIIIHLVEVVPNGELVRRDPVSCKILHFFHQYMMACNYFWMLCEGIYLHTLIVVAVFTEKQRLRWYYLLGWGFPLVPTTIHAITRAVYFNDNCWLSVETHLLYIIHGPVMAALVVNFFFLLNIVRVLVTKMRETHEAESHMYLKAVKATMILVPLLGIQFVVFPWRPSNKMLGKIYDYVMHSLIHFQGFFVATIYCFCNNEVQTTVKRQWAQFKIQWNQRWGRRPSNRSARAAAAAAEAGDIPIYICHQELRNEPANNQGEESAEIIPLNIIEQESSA

B1: N^ε1-[2-[2-[2-[[(4S)-4-carboxy-4-(19-carboxynonadecanoylamino)butanoyl]amino]ethoxy]ethoxy]acetyl]-[Ala14,Arg17,Pro21,Pro27,Pro31]-h-amylin (peptide)
peptide: K([AEEA-γGlu-C20 diacid])CNTATCATQRLAAFLRHSSPNFGAIPSSTPVGSNTY-NH2
modifications: disulfide 2-7; N-terminus assumed
SMILES: CC[C@H](C)[C@H](NC(=O)[C@H](C)NC(=O)CNC(=O)[C@H](Cc1ccccc1)NC(=O)[C@H](CC(N)=O)NC(=O)[C@@H]1CCCN1C(=O)[C@H](CO)NC(=O)[C@H](CO)NC(=O)[C@H](Cc1c[nH]cn1)NC(=O)[C@H](CCCNC(=N)N)NC(=O)[C@H](CC(C)C)NC(=O)[C@H](Cc1ccccc1)NC(=O)[C@H](C)NC(=O)[C@H](C)NC(=O)[C@H](CC(C)C)NC(=O)[C@H](CCCNC(=N)N)NC(=O)[C@H](CCC(N)=O)NC(=O)[C@@H](NC(=O)[C@H](C)NC(=O)[C@@H]1CSSC[C@H](NC(=O)[C@@H](N)CCCCNC(=O)COCCOCCNC(=O)CC[C@H](NC(=O)CCCCCCCCCCCCCCCCCCC(=O)O)C(=O)O)C(=O)N[C@@H](CC(N)=O)C(=O)N[C@@H]([C@@H](C)O)C(=O)N[C@@H](C)C(=O)N[C@@H]([C@@H](C)O)C(=O)N1)[C@@H](C)O)C(=O)N1CCC[C@H]1C(=O)N[C@@H](CO)C(=O)N[C@@H](CO)C(=O)N[C@H](C(=O)N1CCC[C@H]1C(=O)N[C@H](C(=O)NCC(=O)N[C@@H](CO)C(=O)N[C@@H](CC(N)=O)C(=O)N[C@H](C(=O)N[C@@H](Cc1ccc(O)cc1)C(N)=O)[C@@H](C)O)C(C)C)[C@@H](C)O
notes: also called compound 72
B2: N^ε1-[2-[2-[2-[[(4S)-4-carboxy-4-(19-carboxynonadecanoylamino)butanoyl]amino]ethoxy]ethoxy]acetyl]-[Arg17,Pro21,Pro27,Arg34]-h-amylin (peptide)
peptide: K([AEEA-γGlu-C20 diacid])CNTATCATQRLANFLRHSSPNFGAIPSSTNVGRNTY-NH2
modifications: disulfide 2-7; N-terminus assumed
SMILES: CC[C@H](C)[C@H](NC(=O)[C@H](C)NC(=O)CNC(=O)[C@H](Cc1ccccc1)NC(=O)[C@H](CC(N)=O)NC(=O)[C@@H]1CCCN1C(=O)[C@H](CO)NC(=O)[C@H](CO)NC(=O)[C@H](Cc1c[nH]cn1)NC(=O)[C@H](CCCNC(=N)N)NC(=O)[C@H](CC(C)C)NC(=O)[C@H](Cc1ccccc1)NC(=O)[C@H](CC(N)=O)NC(=O)[C@H](C)NC(=O)[C@H](CC(C)C)NC(=O)[C@H](CCCNC(=N)N)NC(=O)[C@H](CCC(N)=O)NC(=O)[C@@H](NC(=O)[C@H](C)NC(=O)[C@@H]1CSSC[C@H](NC(=O)[C@@H](N)CCCCNC(=O)COCCOCCNC(=O)CC[C@H](NC(=O)CCCCCCCCCCCCCCCCCCC(=O)O)C(=O)O)C(=O)N[C@@H](CC(N)=O)C(=O)N[C@@H]([C@@H](C)O)C(=O)N[C@@H](C)C(=O)N[C@@H]([C@@H](C)O)C(=O)N1)[C@@H](C)O)C(=O)N1CCC[C@H]1C(=O)N[C@@H](CO)C(=O)N[C@@H](CO)C(=O)N[C@H](C(=O)N[C@@H](CC(N)=O)C(=O)N[C@H](C(=O)NCC(=O)N[C@@H](CCCNC(=N)N)C(=O)N[C@@H](CC(N)=O)C(=O)N[C@H](C(=O)N[C@@H](Cc1ccc(O)cc1)C(N)=O)[C@@H](C)O)C(C)C)[C@@H](C)O
notes: also called compound 78
B3: N^ε1-[2-[2-[2-[[(4S)-4-carboxy-4-(19-carboxynonadecanoylamino)butanoyl]amino]ethoxy]ethoxy]acetyl]-[Arg14,Arg17,Pro21,Pro27,Pro31]-h-amylin (peptide)
peptide: K([AEEA-γGlu-C20 diacid])CNTATCATQRLARFLRHSSPNFGAIPSSTPVGSNTY-NH2
modifications: disulfide 2-7; N-terminus assumed
SMILES: CC[C@H](C)[C@H](NC(=O)[C@H](C)NC(=O)CNC(=O)[C@H](Cc1ccccc1)NC(=O)[C@H](CC(N)=O)NC(=O)[C@@H]1CCCN1C(=O)[C@H](CO)NC(=O)[C@H](CO)NC(=O)[C@H](Cc1c[nH]cn1)NC(=O)[C@H](CCCNC(=N)N)NC(=O)[C@H](CC(C)C)NC(=O)[C@H](Cc1ccccc1)NC(=O)[C@H](CCCNC(=N)N)NC(=O)[C@H](C)NC(=O)[C@H](CC(C)C)NC(=O)[C@H](CCCNC(=N)N)NC(=O)[C@H](CCC(N)=O)NC(=O)[C@@H](NC(=O)[C@H](C)NC(=O)[C@@H]1CSSC[C@H](NC(=O)[C@@H](N)CCCCNC(=O)COCCOCCNC(=O)CC[C@H](NC(=O)CCCCCCCCCCCCCCCCCCC(=O)O)C(=O)O)C(=O)N[C@@H](CC(N)=O)C(=O)N[C@@H]([C@@H](C)O)C(=O)N[C@@H](C)C(=O)N[C@@H]([C@@H](C)O)C(=O)N1)[C@@H](C)O)C(=O)N1CCC[C@H]1C(=O)N[C@@H](CO)C(=O)N[C@@H](CO)C(=O)N[C@H](C(=O)N1CCC[C@H]1C(=O)N[C@H](C(=O)NCC(=O)N[C@@H](CO)C(=O)N[C@@H](CC(N)=O)C(=O)N[C@H](C(=O)N[C@@H](Cc1ccc(O)cc1)C(N)=O)[C@@H](C)O)C(C)C)[C@@H](C)O
notes: also called compound 64
B4: N^ε1-[2-[2-[2-[[(4S)-4-carboxy-4-(19-carboxynonadecanoylamino)butanoyl]amino]ethoxy]ethoxy]acetyl]-[Arg17,Pro21,Pro27,Pro28,Pro34]-h-amylin (peptide)
peptide: K([AEEA-γGlu-C20 diacid])CNTATCATQRLANFLRHSSPNFGAIPPSTNVGPNTY-NH2
modifications: disulfide 2-7; N-terminus assumed
SMILES: CC[C@H](C)[C@H](NC(=O)[C@H](C)NC(=O)CNC(=O)[C@H](Cc1ccccc1)NC(=O)[C@H](CC(N)=O)NC(=O)[C@@H]1CCCN1C(=O)[C@H](CO)NC(=O)[C@H](CO)NC(=O)[C@H](Cc1c[nH]cn1)NC(=O)[C@H](CCCNC(=N)N)NC(=O)[C@H](CC(C)C)NC(=O)[C@H](Cc1ccccc1)NC(=O)[C@H](CC(N)=O)NC(=O)[C@H](C)NC(=O)[C@H](CC(C)C)NC(=O)[C@H](CCCNC(=N)N)NC(=O)[C@H](CCC(N)=O)NC(=O)[C@@H](NC(=O)[C@H](C)NC(=O)[C@@H]1CSSC[C@H](NC(=O)[C@@H](N)CCCCNC(=O)COCCOCCNC(=O)CC[C@H](NC(=O)CCCCCCCCCCCCCCCCCCC(=O)O)C(=O)O)C(=O)N[C@@H](CC(N)=O)C(=O)N[C@@H]([C@@H](C)O)C(=O)N[C@@H](C)C(=O)N[C@@H]([C@@H](C)O)C(=O)N1)[C@@H](C)O)C(=O)N1CCC[C@H]1C(=O)N1CCC[C@H]1C(=O)N[C@@H](CO)C(=O)N[C@H](C(=O)N[C@@H](CC(N)=O)C(=O)N[C@H](C(=O)NCC(=O)N1CCC[C@H]1C(=O)N[C@@H](CC(N)=O)C(=O)N[C@H](C(=O)N[C@@H](Cc1ccc(O)cc1)C(N)=O)[C@@H](C)O)C(C)C)[C@@H](C)O
notes: also called compound 55
B5: N^ε1-[2-[2-[2-[[(4S)-4-carboxy-4-(19-carboxynonadecanoylamino)butanoyl]amino]ethoxy]ethoxy]acetyl]-[Arg17,Pro21,Pro27,His34]-h-amylin (peptide)
peptide: K([AEEA-γGlu-C20 diacid])CNTATCATQRLANFLRHSSPNFGAIPSSTNVGHNTY-NH2
modifications: disulfide 2-7; N-terminus assumed
SMILES: CC[C@H](C)[C@H](NC(=O)[C@H](C)NC(=O)CNC(=O)[C@H](Cc1ccccc1)NC(=O)[C@H](CC(N)=O)NC(=O)[C@@H]1CCCN1C(=O)[C@H](CO)NC(=O)[C@H](CO)NC(=O)[C@H](Cc1c[nH]cn1)NC(=O)[C@H](CCCNC(=N)N)NC(=O)[C@H](CC(C)C)NC(=O)[C@H](Cc1ccccc1)NC(=O)[C@H](CC(N)=O)NC(=O)[C@H](C)NC(=O)[C@H](CC(C)C)NC(=O)[C@H](CCCNC(=N)N)NC(=O)[C@H](CCC(N)=O)NC(=O)[C@@H](NC(=O)[C@H](C)NC(=O)[C@@H]1CSSC[C@H](NC(=O)[C@@H](N)CCCCNC(=O)COCCOCCNC(=O)CC[C@H](NC(=O)CCCCCCCCCCCCCCCCCCC(=O)O)C(=O)O)C(=O)N[C@@H](CC(N)=O)C(=O)N[C@@H]([C@@H](C)O)C(=O)N[C@@H](C)C(=O)N[C@@H]([C@@H](C)O)C(=O)N1)[C@@H](C)O)C(=O)N1CCC[C@H]1C(=O)N[C@@H](CO)C(=O)N[C@@H](CO)C(=O)N[C@H](C(=O)N[C@@H](CC(N)=O)C(=O)N[C@H](C(=O)NCC(=O)N[C@@H](Cc1c[nH]cn1)C(=O)N[C@@H](CC(N)=O)C(=O)N[C@H](C(=O)N[C@@H](Cc1ccc(O)cc1)C(N)=O)[C@@H](C)O)C(C)C)[C@@H](C)O
notes: also called compound 76

Assays:
[1] = target: T1, human amylin receptor (amylin 3(a) …); assay: cell-based or functional assay
[2] = target: T2, human calcitonin receptor; assay: cell-based or functional assay

Binder	hAmylin-R funct. EC50 [1] [nM]	Ratio hCT/hAmylin funct. (hCTR EC50 against hAmylin-R EC50) [2]	hCTR funct. EC50 [2] [nM]
B1	0.106	44.9	4.76
B2	0.316	25.8	8.17
B3	0.378	60.7	22.9
K([AEEA-γGlu-C20 diacid])CNTATCATQRLANFLRHSSPNFGAIPPSTPVGSNTY-NH2 (disulfide 2-7, also called compound 53)	0.064	9.8	0.625
B4	0.068	10.8	0.731
B5	0.297	24.8	7.37
